From publication PMC5994540

Key:
[1] = surface/total immunofluorescence, COS-7, with GluN1-4a; conditions: glycan lost; control: wild-type GluN1/GluN3A
[2] = spine/shaft GFP fluorescence ratio, hippocampal neurons; conditions: glycan lost; control: wild-type GluN3A
[3] = surface/total GFP immunofluorescence, hippocampal neuron dendrites; conditions: glycan lost; control: wild-type GluN3A
[4] = surface immunofluorescence, GluN1/GluN3A in human CDG patient fibroblasts; conditions: glycan lost; control: control fibroblasts
[5] = whole-cell patch clamp, 500 μM glycine, HEK293; conditions: glycan lost; control: wild-type GluN1/GluN3A, untreated
[6] = surface immunofluorescence, GluN1/GluN3A in COS-7; conditions: control: untreated
[7] = surface biotinylation, endogenous GluN3A, rat hippocampal neurons; conditions: control: untreated
[8] = surface/total GFP immunofluorescence, GFP-GluN3A in hippocampal neurons; conditions: control: untreated

B1: GluN3A subunit: GluN3A-12N→12Q (protein)
parent chain: MRRLSLWWLLSRVCLLLPPPCALVLAGVPSSSSHPQPCQILKRIGHAVRVGAVHLQPWTTAPRAASRAQEGGRAGAQRDDPESGTWRPPAPSQGARWLGSALHGRGPPGSRKLGEGAGAETLWPRDALLFAVENLNRVEGLLPYNLSLEVVMAIEAGLGDLPLMPFSSPSSPWSSDPFSFLQSVCHTVVVQGVSALLAFPQSQGEMMELDLVSSVLHIPVLSIVRHEFPRESQNPLHLQLSLENSLSSDADVTVSILTMNNWYNFSLLLCQEDWNITDFLLLTENNSKFHLESVINITANLSSTKDLLSFLQVQMDNIRNSTPTMVMFGCDMDSIRQIFEMSTQFGLSPPELHWVLGDSQNVEELRTEGLPLGLIAHGKTTQSVFEYYVQDAMELVARAVATATMIQPELALLPSTMNCMDVKTTNLTSGQYLSRFLANTTFRGLSGSIKVKGSTIISSENNFFIWNLQHDPMGKPMWTRLGSWQGGRIVMDSGIWPEQAQRHKTHFQHPNKLHLRVVTLIEHPFVFTREVDDEGLCPAGQLCLDPMTNDSSMLDRLFSSLHSSNDTVPIKFKKCCYGYCIDLLEQLAEDMNFDFDLYIVGDGKYGAWKNGHWTGLVGDLLSGTANMAVTSFSINTARSQVIDFTSPFFSTSLGILVRTRDTAAPIGAFMWPLHWTMWLGIFVALHITAIFLTLYEWKSPFGMTPKGRNRNKVFSFSSALNVCYALLFGRTAAIKPPKCWTGRFLMNLWAIFCMFCLSTYTANLAAVMVGEKIYEELSGIHDPKLHHPSQGFRFGTVRESSAEDYVRQSFPEMHEYMRRYNVPATPDGVQYLKNDPEKLDAFIMDKALLDYEVSIDADCKLLTVGKPFAIEGYGIGLPPNSPLTSNISELISQYKSHGFMDVLHDKWYKVVPCGKRSFAVTETLQMGIKHFSGLFVLLCIGFGLSILTTIGEHIVHRLLLPRIKNKSKLQYWLHTSQRFHRALNTSFVEEKQPRSKTKRVEKSRWRRWTCKTEGDSELSLFPRSNLGPQQLMVWNTSNLSHDNQRKYIFNDEEGQNQLGTQAHQDIPLPQRRRELPASLTTNGKADSLNVTRSSVIQELSELEKQIQVIRQELQLAVSRKTELEEYQKTNRTCES
- localisation_or_trafficking [1]: abolishes
- localisation_or_trafficking [2]: decreases
- localisation_or_trafficking [3]: decreases

B2: GluN3A subunit: N300Q (protein)
parent chain: B1 parent chain
- localisation_or_trafficking [1]: no change

B3: GluN3A subunit: N264Q (protein)
parent chain: B1 parent chain
- localisation_or_trafficking [1]: no change

B4: GluN3A subunit: N296Q (protein)
parent chain: B1 parent chain
- localisation_or_trafficking [1]: no change

B5: GluN3A subunit: ALG8-CDG (protein)
parent chain: B1 parent chain
- localisation_or_trafficking [4]: decreases

B6: GluN3A subunit: GluN3A-1/4N→Q (protein)
parent chain: B1 parent chain
- other: channel desensitisation (τw), other: τw of desensitization [5]: no change
- localisation_or_trafficking [1]: decreases
- localisation_or_trafficking [2]: decreases
- localisation_or_trafficking [3]: decreases

B7: GluN3A subunit: DPAGT1-CDG (protein)
parent chain: B1 parent chain
- localisation_or_trafficking [4]: no change

B8: GluN3A subunit: GluN3A-2/2N→Q (protein)
parent chain: B1 parent chain
- localisation_or_trafficking [1]: no change
- localisation_or_trafficking [3]: no change

B9: GluN3A subunit: N275Q (protein)
parent chain: B1 parent chain
- localisation_or_trafficking [1]: no change

B10: GluN3A subunit: GluN3A-2/4N→Q (protein)
parent chain: B1 parent chain
- localisation_or_trafficking [1]: no change

B11: GluN3A subunit: DMM (protein)
parent chain: B1 parent chain
- localisation_or_trafficking ([6]; glycan changed form): no change
- localisation_or_trafficking ([7]; glycan changed form): no change
- localisation_or_trafficking ([8]; glycan changed form): no change

B12: GluN3A subunit: N320Q (protein)
parent chain: B1 parent chain
- localisation_or_trafficking [1]: no change

B13: GluN3A subunit: GluN3A-1/2N→Q (protein)
parent chain: B1 parent chain
- localisation_or_trafficking [1]: decreases
- localisation_or_trafficking [3]: decreases

B14: GluN3A subunit: N439Q (protein)
parent chain: B1 parent chain
- localisation_or_trafficking [1]: no change

B15: GluN3A subunit: PNGase F (protein)
parent chain: B1 parent chain
- other: channel desensitisation (τw), other: τw of desensitization [5]: no change

B16: GluN3A subunit: GluN3A-3/4N→Q (protein)
parent chain: B1 parent chain
- localisation_or_trafficking [1]: no change

B17: GluN3A subunit: GluN3A-4/4N→Q (protein)
parent chain: B1 parent chain
- localisation_or_trafficking [1]: no change

B18: GluN3A subunit: N145Q (protein)
parent chain: B1 parent chain
- localisation_or_trafficking [1]: no change

B19: GluN3A subunit: tunicamycin (protein)
parent chain: B1 parent chain
- localisation_or_trafficking ([6]; glycan lost): decreases
- localisation_or_trafficking ([7]; glycan lost): decreases
- localisation_or_trafficking ([8]; glycan lost): decreases

B20: GluN3A subunit: N285Q (protein)
parent chain: B1 parent chain
- localisation_or_trafficking [1]: no change

B21: GluN3A subunit: swainsonine (protein)
parent chain: B1 parent chain
- localisation_or_trafficking ([6]; glycan changed form): no change
- localisation_or_trafficking ([7]; glycan changed form): no change
- localisation_or_trafficking ([8]; glycan changed form): no change

B22: GluN3A subunit: N565Q (protein)
parent chain: B1 parent chain
- localisation_or_trafficking [1]: no change

B23: GluN3A subunit: N549Q (protein)
parent chain: B1 parent chain
- localisation_or_trafficking [1]: no change

B24: GluN3A subunit: N886Q (protein)
parent chain: B1 parent chain
- localisation_or_trafficking [1]: no change

B25: GluN3A subunit: N426Q (protein)
parent chain: B1 parent chain
- localisation_or_trafficking [1]: no change

B26: GluN3A subunit: kifunensine (protein)
parent chain: B1 parent chain
- localisation_or_trafficking ([6]; glycan changed form): no change
- localisation_or_trafficking ([7]; glycan changed form): no change
- localisation_or_trafficking ([8]; glycan changed form): no change

B27: GluN3A subunit: DNJ (protein)
parent chain: B1 parent chain
- localisation_or_trafficking ([6]; glycan changed form): no change
- localisation_or_trafficking ([7]; glycan changed form): no change
- localisation_or_trafficking ([8]; glycan changed form): no change
